The source of these data is patent EP4667483A1 (JCR Pharmaceuticals Co., Ltd., dated 2024).

Numbered stars: 1 amine (or outer) side, 2 acyl side, 3 side chain; on linkers, the order of the positions; unused ones are H or OH. Bridge positions count the residues as written; N and C are the ends. Square brackets hold non-standard residues; d marks the D form. * marks the point of attachment. F4aao = 4-(carboxymethoxy)-L-phenylalanine, O=C([C@H](Cc1ccc(OCC(=O)[*:3])cc1)N[*:1])[*:2]; X4 = 4‑(carboxymethyl)piperazine‑1‑carbonyl, O=C(O)CN1CCN(C(=O)*)CC1; NH(1-deoxy-D-glucityl) = OC[C@@H](O)[C@@H](O)[C@H](O)[C@@H](O)CN*; PEG4c = amino-tetraoxa (PEG4) carboxylic acid spacer; NMePhe(4-COOH) = CN[C@@H](Cc1ccc(C(=O)O)cc1)C(=O)O; Phe(3-COOH) = N[C@@H](Cc1cccc(C(=O)O)c1)C(=O)O; NMePhe(3-Cl) = CN[C@@H](Cc1cccc(Cl)c1)C(=O)O; Piperazinyl(4-CH2COOH) = O=C(O)CN1CCN(*)CC1; 3Pal(6-NH2) = Nc1ccc(C[C@H](N)C(=O)O)cn1; NMeW = CN[C@@H](Cc1c[nH]c2ccccc12)C(=O)O; Lys(N3) = [N-]=[N+]=NCCCC[C@H](N)C(=O)O; NMeY = CN[C@@H](Cc1ccc(O)cc1)C(=O)O; NMeF = CN[C@@H](Cc1ccccc1)C(=O)O; F3COO(PEG4c) = not defined here

As usually defined, the Kd is a measure of binding affinity in units of concentration. Read a high Kd as lower affinity.

The labels stand for the following.
B1: 894_0530 (SEQ ID No. 80) (peptide)
peptide: AVXVWNYXIIQRXXC
modifications: MeF3C at 3; F4OMe at 8; Eva at 9; F3COO at 13; MeF4COO at 14; cyclic: chloroacetylated N-terminal Ala 1 joined to Cys 15; linker PEG4c on C-terminus
notes: As printed: A-V-MeF3C-V-W-N-Y-F4OMe-Eva-I-Q-R-F3COO-MeF4COO-C, linker PEG4c
B2: 894_0531 (SEQ ID No. 81) (peptide)
peptide: AVXVWNYXIIQRXXC
modifications: MeF3C at 3; F4OMe at 8; Eva at 9; F3COO at 13; MeF3COO at 14; cyclic: chloroacetylated N-terminal Ala 1 joined to Cys 15; linker PEG4c on C-terminus
notes: As printed: A-V-MeF3C-V-W-N-Y-F4OMe-Eva-I-Q-R-F3COO-MeF3COO-C, linker PEG4c
B3: 894_0518 (SEQ ID No. 72) (peptide)
peptide: {CH2CO}-AV[NMePhe(3-Cl)]VWNY[F4aao]IIQR[Phe(3-COOH)][NMeY]C-PEG4c
modifications: thioether N-15
notes: As printed: A-V-MeF3C-V-W-N-Y-F4aao-I-I-Q-R-F3COO-MeY-C, linker PEG4c
B4: 894_3498 (peptide)
peptide: AVXVXNXYIIKRYXC
modifications: as printed: A-V-MeF-V-MeW-N-3Py6NH2-Y-I-I-K-R-Y-MeF4COO-C; linker G-de-de-de-ds-ds-KN3-NH2; cyclic (ClAc-Ala1 thioether to Cys15)
B5: 894_3488 (peptide)
peptide: AVXVXNYYIIKRXXC
modifications: as printed: A-V-MeF-V-MeW-N-Y-Y-I-I-K-R-F3COO(PEG4c)-MeF4COO-C; linker G-KN3-NH2; cyclic (ClAc-Ala1 thioether to Cys15)
B6: 894_3486 (peptide)
peptide: {CH2CO}-AV[NMeF]V[NMeW]N[3Pal(6-NH2)]YIIKRY[NMePhe(4-COOH)]CG[Lys(N3)]-NH2
modifications: thioether N-15
SMILES: CC[C@H](C)[C@@H]1NC(=O)[C@H](Cc2ccc(O)cc2)NC(=O)[C@H](Cc2ccc(N)nc2)NC(=O)[C@H](CC(N)=O)NC(=O)[C@H](Cc2c[nH]c3ccccc23)N(C)C(=O)[C@H](C(C)C)NC(=O)[C@H](Cc2ccccc2)N(C)C(=O)[C@H](C(C)C)NC(=O)[C@H](C)NC(=O)CSC[C@@H](C(=O)NCC(=O)N[C@@H](CCCCN=[N+]=[N-])C(N)=O)NC(=O)[C@H](Cc2ccc(C(=O)O)cc2)N(C)C(=O)[C@H](Cc2ccc(O)cc2)NC(=O)[C@H](CCCNC(=N)N)NC(=O)[C@H](CCCCN)NC(=O)[C@H]([C@@H](C)CC)NC1=O
B7: 894_3491 (peptide)
peptide: {CH2CO}-AV[NMeF]VWNRYIIRR[F3COO(PEG4c)][NMePhe(4-COOH)]CG[Lys(N3)]-NH2
modifications: thioether N-15; reading uncertain
B8: 894_0512 (SEQ ID NO: 39) (peptide)
peptide: {CH2CO}-AV[NMePhe(3-Cl)]VWNY[F4aao](NH(1-deoxy-D-glucityl))IIE(NH(1-deoxy-D-glucityl))QF[NMeY]C-{PEG4c-NH2}
modifications: thioether N-15
B9: 894_0511 (SEQ ID NO: 38) (peptide)
peptide: {CH2CO}-AV[NMePhe(3-Cl)]VWNY[F4aao](Piperazinyl(4-CH2COOH))IIK(X4)QF[NMeY]C-{PEG4c-NH2}
modifications: thioether N-15

One assay has as its target T1, human transferrin receptor (hTfR) (human, UniProt P02786 89-760).
T1 construct: also called human TfR; TfR1
The assay is described as follows: SPR; ratio of koff at pH 6.0 to koff at pH 7.4. For orientation: SPR reads the build-up and loss of mass on a sensor chip optically.
T1 sequence (P02786 89-760 limits assumed): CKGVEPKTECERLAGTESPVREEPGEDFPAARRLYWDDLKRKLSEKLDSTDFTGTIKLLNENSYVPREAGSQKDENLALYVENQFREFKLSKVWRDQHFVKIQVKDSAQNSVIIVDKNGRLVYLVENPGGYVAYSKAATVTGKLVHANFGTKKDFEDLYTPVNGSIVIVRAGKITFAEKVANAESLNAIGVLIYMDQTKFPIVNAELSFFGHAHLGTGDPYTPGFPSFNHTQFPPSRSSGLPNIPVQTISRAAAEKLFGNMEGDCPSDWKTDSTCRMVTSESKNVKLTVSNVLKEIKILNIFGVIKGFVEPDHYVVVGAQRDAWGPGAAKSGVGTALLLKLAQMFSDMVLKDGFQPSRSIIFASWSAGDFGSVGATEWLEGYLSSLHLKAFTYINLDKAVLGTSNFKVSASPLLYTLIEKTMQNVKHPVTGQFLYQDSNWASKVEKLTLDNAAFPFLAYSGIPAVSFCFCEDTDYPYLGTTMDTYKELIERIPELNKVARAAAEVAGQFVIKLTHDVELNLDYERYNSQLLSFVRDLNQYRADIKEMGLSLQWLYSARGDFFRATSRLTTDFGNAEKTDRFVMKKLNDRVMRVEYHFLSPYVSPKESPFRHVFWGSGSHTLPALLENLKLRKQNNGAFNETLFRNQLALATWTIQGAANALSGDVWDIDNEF
As to B1, the “dependency koff pH6.0/7.4” value was 22.2.

Regarding B2, the “dependency koff pH6.0/7.4” value was determined as 13.5.

Consider B3, for which the “dependency koff pH6.0/7.4” value is 5.72.

A further assay addresses T2, human transferrin receptor (hTfR) (human, UniProt P02786 89-760).
T2 construct: Recombinant hTfR; at pH 7.4 captured on the chip by an anti-His tag antibody, at pH 6.0 immobilized on an NTA chip, so it carries a His tag; also called human TfR; TfR1
In words: SPR (Biacore T200), pH 6.0, hTfR on chip.
T2 sequence (P02786 89-760 limits assumed): as above
Regarding B4, the affinity, expressed as Kd, was 145 nM. In other words, the sub-micromolar range.

In the case of B5, the Kd was 5.15 nM.

B6 registered a Kd of 13.9 nM. Compared with the last molecule, the Kd is about 2.7-fold higher.

Molecule B7 registered a Kd of 799 nM.

In the next assay the target is T1, human transferrin receptor (hTfR). In words: SPR, Biacore T200, hTfR captured by anti-His antibody on CM3 chip, pH 7.4.
In the case of B1, the Kd is 0.529 nM.

Consider B2, for which the Kd came to 1.87 nM. Against the preceding molecule, the Kd is about 3.5-fold higher.

For B3, the Kd was 3.34 nM.

The target in another assay is T3, human transferrin receptor (hTfR) (human, UniProt P02786 89-760).
T3 construct: a His tag is implied by the NTA chip and the anti-His capture; also called human TfR; TfR1
The assay is described as follows: SPR, KD pH 6.0 / KD pH 7.4.
T3 sequence (P02786 89-760 limits assumed): as above
For the molecule B8, the “dependency KD pH6.0/7.4” value was found to be 8.37.

Consider B9, for which the “dependency KD pH6.0/7.4” value came to 3.12.

A further assay addresses T2, human transferrin receptor (hTfR). The assay is described as follows: SPR (Biacore T200), pH 7.4, hTfR on chip.
The molecule B4 yielded a Kd of 18.8 nM.

Molecule B5 gave a Kd of 1.6 nM.

B6 yielded a Kd of 2.94 nM.

The molecule B7 gave a Kd of 214 nM. This Kd lies about 73-fold higher than the previous one.

A further assay has the same target. In words: SPR, koff at pH 6.0 over koff at pH 7.4.
Target sequence in this assay (P02786 89-760 limits assumed): as above
Regarding B4, the “dependency koff pH6.0/7.4” value is 10.8.

B5: the “dependency koff pH6.0/7.4” value came out at 5.15.

In the case of B6, the “dependency koff pH6.0/7.4” value was determined as 8.92.

Consider B7, for which the “dependency koff pH6.0/7.4” value was 2.44.

The target in another assay is T1, human transferrin receptor (hTfR). In words: SPR, Biacore T200, hTfR immobilised on NTA chip, pH 6.0.
In the case of B1, the Kd was found to be 5.73 nM.

Molecule B2 displayed a Kd of 9.19 nM. This Kd is about 1.6-fold higher than that of the molecule before.

In turn, B3 had a Kd of 6.32 nM. This Kd and that of the molecule before are within 1.5-fold of each other.

The target in the next assay is T2, human transferrin receptor (hTfR). The assay is described as follows: SPR, KD at pH 6.0 over KD at pH 7.4.
B4: the “dependency KD pH6.0/7.4” value turned out to be 7.71.

B5: the “dependency KD pH6.0/7.4” value is 3.22.

Regarding B6, the “dependency KD pH6.0/7.4” value worked out at 4.73.

For B7, the “dependency KD pH6.0/7.4” value amounted to 3.73.

In a further assay the target is T3, human transferrin receptor (hTfR). The assay is described as follows: SPR, pH 6.0.
In turn, B8 yielded a dissociation constant Kd of 12.4 nM.

In turn, B9 came in with a Kd of 14.8 nM. The Kd values of the last two molecules are within 1.5-fold of each other.

A further assay deals with T1, human transferrin receptor (hTfR). In words: SPR; ratio of KD at pH 6.0 to KD at pH 7.4.
On to B1, for which the “dependency KD pH6.0/7.4” value worked out at 10.8.

Regarding B2, the “dependency KD pH6.0/7.4” value came out at 4.91.

In the case of B3, the “dependency KD pH6.0/7.4” value amounted to 1.89.

Another assay has as its target T3, human transferrin receptor (hTfR). In words: SPR, pH 7.4.
As for B8, the Kd turned out to be 1.48 nM. This counts as single-digit nanomolar.

The molecule B9 came in with an equilibrium dissociation constant (Kd) of 4.75 nM.

The next assay has the same target. The assay is described as follows: SPR, koff pH 6.0 / koff pH 7.4.
Target sequence in this assay (P02786 89-760 limits assumed): as above
For B8, the “dependency koff pH6.0/7.4” value was found to be 25.6.

For B9, the “dependency koff pH6.0/7.4” value amounted to 12.5.
